Series [1] relates to Saccharomyces cerevisiae. Nature of the series: protein stability index of tFT-peptide fusion (C-terminal peptide) (PSI (0-1 scale)); higher = more stable (slower turnover). How it is done:
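MPS profiling in S. cerevisiae of the tFT-X12 degron library: putative degron peptides plus stable controls, 12 aa, fused to the C-terminus of a sfGFP-mCherry timer. Cells are FACS-sorted into 8 mCherry/sfGFP bins and deep-sequenced. PSI runs from 0 (unstable) to 1 (stable). Backgrounds are wild type, das1Δ and doa10Δ at 30 °C, and wild type, das1Δ, cdc34-1 and cdc53-1 at 37 °C; 2-3 technical replicates each.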

The subject of series [2] is Saccharomyces cerevisiae. Described as above. The conditions noted are these: genetic background: wild type; temperature: 30 C.
Where [3] appears, read: genetic background: cdc34-1, temperature: 37 C.
Setting [4] is: genetic background: cdc53-1, temperature: 37 C.
The mark [5] stands for this setting: genetic background: das1 deletion, temperature: 30 C.
Setting [6] is: genetic background: das1 deletion, temperature: 37 C.
Where [7] appears, read: genetic background: doa10 deletion, temperature: 30 C.
The mark [8] stands for this setting: genetic background: wild type, temperature: 30 C.
Where [9] appears, read: genetic background: wild type, temperature: 37 C.

± gives the standard deviation of the averaged measurements.
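Note: PSI is a weighted mean of sequencing reads over stability bins, variants kept only with over 10 reads, mCherry proximal and sfGFP distal, peptide attached via GGGS linker.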

Regarding PHSMRTTTIMCS, the protein stability index amounted to 0.357 ± 0.034 in the series on Saccharomyces cerevisiae [1] (setting [3]); 0.444 ± 0.021 in the series with Saccharomyces cerevisiae [1] (setting [4]); 0.296 ± 0.031 with Saccharomyces cerevisiae [1] (setting [5]); 0.516 ± 0.0075 in the series with Saccharomyces cerevisiae [1] (setting [6]); 0.214 ± 0.0032 with Saccharomyces cerevisiae [1] (setting [7]); 0.243 ± 0.056 in the series on Saccharomyces cerevisiae [1] (setting [8]). The sequence also gave a protein stability index in the series with Saccharomyces cerevisiae [1] (setting [9]) of 0.436 ± 0.0045.

On to RPPPAANFTRSS, for which the protein stability index is 0.655 ± 0.022 in the series on Saccharomyces cerevisiae [1] (setting [3]); 0.688 ± 0.024 in the series on Saccharomyces cerevisiae [1] (setting [4]); 0.665 ± 0.016 in the series on Saccharomyces cerevisiae [1] (setting [5]); 0.698 ± 0.012 in the series with Saccharomyces cerevisiae [1] (setting [6]); 0.665 ± 0.018 with Saccharomyces cerevisiae [1] (setting [7]); 0.661 ± 0.0078 in the series with Saccharomyces cerevisiae [1] (setting [8]). In the series with Saccharomyces cerevisiae [1] (setting [9]), the protein stability index came out at 0.679 ± 0.012.

Sequence WGVGWVLEVLLG showed a protein stability index in the series on Saccharomyces cerevisiae [2] of 0.529 ± 0.0066.

As for WHSGVICQTVLM, the protein stability index with Saccharomyces cerevisiae [2] is 0.651 ± 0.014.

WICFDFLLPVAL showed a protein stability index with Saccharomyces cerevisiae [2] of 0.549 ± 0.025.

WIDSGCALVEIA: the protein stability index in the series on Saccharomyces cerevisiae [2] came to 0.701 ± 0.045.

In the series with Saccharomyces cerevisiae [2], WIFPPLPPPLPR displayed a protein stability index of 0.7174 ± 0.0037.

WILDKECFKECD had a protein stability index with Saccharomyces cerevisiae [2] of 0.654 ± 0.046.

Regarding WIPITSDKCNFK, the protein stability index in the series on Saccharomyces cerevisiae [2] came out at 0.709 ± 0.06.

On to WKCHRTDSRKRW, for which the protein stability index in the series on Saccharomyces cerevisiae [2] amounted to 0.726 ± 0.044.

WKSSRSRCIHGE: the protein stability index in the series on Saccharomyces cerevisiae [2] was determined as 0.707 ± 0.026.

For the sequence WKVFKGLSADVS, the protein stability index in the series on Saccharomyces cerevisiae [2] stood at 0.669 ± 0.026.

As to WLGGGGTVAHSP, the protein stability index in the series on Saccharomyces cerevisiae [2] is 0.726 ± 0.1.

Take WLPPPPPPSPSS: the protein stability index in the series on Saccharomyces cerevisiae [2] is 0.767 ± 0.0026.

With WLTNKYDNIVKD, the protein stability index with Saccharomyces cerevisiae [2] turned out to be 0.7634 ± 0.0068.

Regarding WLVADWLLALFW, the protein stability index with Saccharomyces cerevisiae [2] stood at 0.627 ± 0.019.

WLVGGGTVAHSP had a protein stability index in the series with Saccharomyces cerevisiae [2] of 0.77 ± 0.088.

WLVPSGTRTGRV: the protein stability index with Saccharomyces cerevisiae [2] amounted to 0.678 ± 0.028.

As for WLWYLSTRHSKL, in the series on Saccharomyces cerevisiae [2], the protein stability index was determined as 0.7871 ± 0.0037.

In the case of WPCVGWTLCSCS, in the series on Saccharomyces cerevisiae [2], the protein stability index amounted to 0.541 ± 0.042.

Take WPFHADPPPPVP: the protein stability index in the series with Saccharomyces cerevisiae [2] was 0.6969 ± 0.0026.

WPGRAVCLGAGW displayed a protein stability index in the series on Saccharomyces cerevisiae [2] of 0.734 ± 0.056.

In the case of WPSHVTLPYGLV, in the series on Saccharomyces cerevisiae [2], the protein stability index is 0.6545 ± 0.0057.

As to WQDTASNSNTTI, the protein stability index in the series with Saccharomyces cerevisiae [2] is 0.719 ± 0.024.

In turn, WRCSAITASEYL displayed a protein stability index in the series on Saccharomyces cerevisiae [2] of 0.686 ± 0.032.

In the series with Saccharomyces cerevisiae [2], WRDGSLKIKCML showed a protein stability index of 0.756 ± 0.21.

As for WRLGGGMVCVAS, in the series with Saccharomyces cerevisiae [2], the protein stability index worked out at 0.566 ± 0.042.

Take WRNTGSTYYMKV: the protein stability index with Saccharomyces cerevisiae [2] was 0.723 ± 0.015.

Consider WRNVEITSGSPH, for which, in the series with Saccharomyces cerevisiae [2], the protein stability index came to 0.672 ± 0.063.

As for WRRCSGGGVGSP, the protein stability index in the series on Saccharomyces cerevisiae [2] is 0.655 ± 0.084.

With WRRGMMGGLAIW, the protein stability index with Saccharomyces cerevisiae [2] stood at 0.698 ± 0.012.

As for WSGNYSNITRYI, in the series with Saccharomyces cerevisiae [2], the protein stability index is 0.66 ± 0.019.

With WSWTNDAFFGVV, the protein stability index in the series with Saccharomyces cerevisiae [2] was 0.681 ± 0.068.

For WTLSGHKHIPED, in the series with Saccharomyces cerevisiae [2], the protein stability index worked out at 0.736 ± 0.013.

WVAGPWLGRVQE: the protein stability index in the series on Saccharomyces cerevisiae [2] was 0.733 ± 0.0083.

For the sequence WVLFRNKSVAAS, the protein stability index in the series with Saccharomyces cerevisiae [2] was determined as 0.527 ± 0.012.

In turn, WVNGFCKKGSGH had a protein stability index in the series with Saccharomyces cerevisiae [2] of 0.713 ± 0.015.

On to WVRLITCVRCSR, for which the protein stability index in the series with Saccharomyces cerevisiae [2] was 0.594 ± 0.048.

Regarding WVTLGMGGECMR, the protein stability index in the series with Saccharomyces cerevisiae [2] was 0.818 ± 0.14.

With WWGGGGGMQGVR, in the series with Saccharomyces cerevisiae [2], the protein stability index is 0.674 ± 0.0096.

WWGLGGREPGGS gave a protein stability index in the series on Saccharomyces cerevisiae [2] of 0.711 ± 0.072.

In turn, WYCRWWGVRGGH displayed a protein stability index in the series with Saccharomyces cerevisiae [2] of 0.672 ± 0.1.

The sequence WYFSSPPPFFSP displayed a protein stability index in the series with Saccharomyces cerevisiae [2] of 0.766 ± 0.058.

In the series on Saccharomyces cerevisiae [2], WYGSYPLTLESY returned a protein stability index of 0.613 ± 0.013.

In turn, WYMKFYNKKMKE had a protein stability index in the series on Saccharomyces cerevisiae [2] of 0.702 ± 0.04.

For the sequence YALPPPPHPLSF, the protein stability index with Saccharomyces cerevisiae [2] was found to be 0.591 ± 0.018.

In turn, YASLPQSRPLSP displayed a protein stability index in the series on Saccharomyces cerevisiae [2] of 0.651 ± 0.013.

Sequence YCSIVRSLGSPL displayed a protein stability index with Saccharomyces cerevisiae [2] of 0.698 ± 0.065.

As for YDLLLLLSLSRP, the protein stability index in the series on Saccharomyces cerevisiae [2] was determined as 0.644 ± 0.012.

YFGGMGARGRER yielded a protein stability index in the series on Saccharomyces cerevisiae [2] of 0.687 ± 0.0081.

Turning to YFRYGLELVTFG, in the series with Saccharomyces cerevisiae [2], the protein stability index turned out to be 0.5004 ± 0.0013.

For the sequence YFSSSPVFPPHL, the protein stability index with Saccharomyces cerevisiae [2] amounted to 0.667 ± 0.16.

For YFWFSRGLSVFF, the protein stability index with Saccharomyces cerevisiae [2] is 0.666 ± 0.0073.

In the series with Saccharomyces cerevisiae [2], YGEGSPPCMPEL had a protein stability index of 0.709 ± 0.017.

Source of the values: the supplement of paper PMC10724198.
